Where a chain is given by its changes, count along the chain named.

Holding throughout (experiment): two-hybrid
One data set concerns the target Cdc10p (S. cerevisiae) (UniProt P25342).
The target in a further data set is Chs4p (S. cerevisiae) (UniProt P34226).
The target in data set [1] is Chs4p^C693S (S. cerevisiae) (UniProt P34226).
For another data set, the target named is T1, Chs4p (S. cerevisiae, UniProt P34226 1-696).
T1 sequence (looked up): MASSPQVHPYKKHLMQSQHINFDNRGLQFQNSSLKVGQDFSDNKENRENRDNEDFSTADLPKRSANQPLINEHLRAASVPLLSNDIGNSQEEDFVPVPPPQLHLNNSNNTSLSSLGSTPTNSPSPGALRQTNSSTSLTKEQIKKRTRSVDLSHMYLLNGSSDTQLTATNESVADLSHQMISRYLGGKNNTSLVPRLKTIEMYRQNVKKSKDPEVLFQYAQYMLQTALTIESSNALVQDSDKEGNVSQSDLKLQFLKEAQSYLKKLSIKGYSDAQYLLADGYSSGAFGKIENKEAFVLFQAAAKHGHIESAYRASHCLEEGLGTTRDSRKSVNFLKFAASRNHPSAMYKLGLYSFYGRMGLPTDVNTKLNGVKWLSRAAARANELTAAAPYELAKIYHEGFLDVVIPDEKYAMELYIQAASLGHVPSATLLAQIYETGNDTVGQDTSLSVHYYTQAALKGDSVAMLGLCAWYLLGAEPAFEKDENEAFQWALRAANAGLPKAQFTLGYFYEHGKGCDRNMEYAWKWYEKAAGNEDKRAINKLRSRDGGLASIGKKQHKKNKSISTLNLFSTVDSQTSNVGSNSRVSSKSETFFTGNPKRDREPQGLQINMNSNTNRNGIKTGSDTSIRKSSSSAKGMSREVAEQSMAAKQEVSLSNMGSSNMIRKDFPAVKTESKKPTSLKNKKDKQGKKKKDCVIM

Another data set concerns the target T2, Chs4p^C693S (S. cerevisiae, UniProt P34226 1-696, C693S).
T2 sequence (looked up): T1 sequence (looked up) with C693S

The data set “two-hybrid” concerns the molecule itself.

Chain of Cdc10p (S. cerevisiae) (P25342 whole entry): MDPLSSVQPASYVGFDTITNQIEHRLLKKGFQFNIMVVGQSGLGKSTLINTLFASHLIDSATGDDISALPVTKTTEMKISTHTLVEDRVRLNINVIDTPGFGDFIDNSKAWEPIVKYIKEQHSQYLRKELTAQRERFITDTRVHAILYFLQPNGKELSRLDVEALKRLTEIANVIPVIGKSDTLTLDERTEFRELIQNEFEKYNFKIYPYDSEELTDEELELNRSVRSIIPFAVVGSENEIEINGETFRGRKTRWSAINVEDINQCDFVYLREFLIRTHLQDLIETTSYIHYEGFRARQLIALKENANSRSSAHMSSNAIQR

As to “Bni4pE (from UniProt P53858 65-730) (domain or fragment)”, the units of β-galactosidase activity (units of β-galactosidase activity) in the data set with Cdc10p (S. cerevisiae) was determined as 1010; in the data set with Chs4p (S. cerevisiae), 238; in data set [1], 2220.

B1: Chs3p^Δ700 (domain or fragment, S. cerevisiae, UniProt P29465 1-700, looked up)
chain: MTGLNGDDPDDYYLNLNQDEESLLRSRHSVGSGAPHRQGSLVRPERSRLNNPDNPHFYYAQKTQEQMNHLDVLPSSTGVNPNATRRSGSLRSKGSVRSKFSGRETDSYLLQDMNTTDKKASVKISDEGVAEDEFDKDGDVDNFEESSTQPINKSIKPLRKETNDTLSFWQMYCYFITFWAPAPILAFCGMPKKERQMAWREKVALISVILYIGAIVAFLTFGFTKTVCSSSKLRLKNNEVSTEFVVINGKAYELDTSSRSGIQDVEVDSDTLYGPWSDAGKDASFLFQNVNGNCHNLITPKSNSSIPHDDDNNLAWYFPCKLKNQDGSSKPNFTVENYAGWNCHTSKEDRDAFYGLKSKADVYFTWDGIKNSSRNLIVYNGDVLDLDLLDWLEKDDVDYPVVFDDLKTSNLQGYDLSLVLSNGHERKIARCLSEIIKVGEVDSKTVGCIASDVVLYVSLVFILSVVIIKFIIACYFRWTVARKQGAYIVDNKTMDKHTNDIEDWSNNIQTKAPLKEVDPHLRPKKYSKKSLGHKRASTFDLLKKHSSKMFQFNESVIDLDTSMSSSLQSSGSYRGMTTMTTQNAWKLSNENKAVHSRNPSTLLPTSSMFWNKATSSPVPGSSLIQSLDSTIIHPDIVQQPPLDFMPYGFPLIHTICFVTCYSEDEEGLRTTLDSLSTTDYPNSHKLLMVVCDGLIKGSGN
Regarding B1, the “units of β-galactosidase activity” value with Chs4p was 617 units of β-galactosidase activity; in the data set with Chs4p^C693S, 568 units of β-galactosidase activity; in “two-hybrid” it was 123 units of β-galactosidase activity.

The record behind these values is PMC2139831 (The Journal of Cell Biology, 1997).
